This passage reports EC50 results from patent publication US20190256582A1 (published 2019).

Where two headings read alike, the source gives them in different places.

What all share (assay): ELISA
Test [1] deals with ZIKV NS1 (Zika virus (ZIKV)).
Test [2] addresses ZIKV NS1 (Zika virus (ZIKV)). This is another data set of the same source.
Test [3] has as its target TBEV NS1.
Test [4] deals with JEV NS1.
Test [5] addresses YFV NS1.
Test [6] has as its target WNV NS1.

B1: ZKA25 (antibody, V domains shown)
VH: EVQLVESGGGLVRPGGSLRLSCAASGFTFRSHWMSWVRQAPGKGLEWVANIKEDGYEKYYVDSVKGRFTISRDNAKNSLYLQMKSLRAEDTAVYYCARDLRVYSGRGFDPWGQGTLVTVSS
VL: not shown
Take B1: the half-maximal effective concentration (EC50) in test [1] stood at 2 ng/mL; in test [2], 2.44 ng/mL.

B2: ZKA15 (antibody, V domains shown)
VH: QVQLQESGPGLVKPSETLSLTCTVSGGFINSYYWSWIRQPAGKGLEWIGRIYKSGSTNYNPSLKSRVTMSLDTSKYQFSLKLRSVTAADTAVYYCARDPYGDYVKAFDIWGQGTMVTVSS
VL: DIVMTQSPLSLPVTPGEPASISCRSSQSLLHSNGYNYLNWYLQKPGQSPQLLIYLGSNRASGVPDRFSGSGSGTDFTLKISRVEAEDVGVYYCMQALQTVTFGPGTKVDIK
B2: the EC50 in test [3] was 4610 ng/mL; in test [4] it was 5500 ng/mL; in test [1], 3 ng/mL; in test [5] it was 2780 ng/mL; in test [6], 3220 ng/mL; in test [2] it was 2.76 ng/mL.

B3: ZKA35 (antibody, V domains shown)
VH: QVQLQESGPGLVKPSQTLSLTCTVSGGSISTGGYYWSWIRQHPGKGLEWIGYIYYSGNTYYNPSLKSRVTISVDTSKKQFSLKLSSVTAADTAVYYCAKGGGRERPFDYWGQGTLVTVSS
VL: QSVLTQPPSASGTPGQRVTISCSGSSSNIGRNYVDWYQQLPGTAPKLLIYRNNQRPSGVPERFSGSKSGTSASLAISGLRSEDEADYYCVAWDDSRSGFVVFGGGTKVTVL
For B3, the EC50 in test [1] came out at 2 ng/mL; in test [2], 1.74 ng/mL.
